Experimental findings from publication PMC3353419 (2013) are described below.

This assay has as its target T1, Haptoglobin (Homo sapiens, UniProt P00738).
T1 chain: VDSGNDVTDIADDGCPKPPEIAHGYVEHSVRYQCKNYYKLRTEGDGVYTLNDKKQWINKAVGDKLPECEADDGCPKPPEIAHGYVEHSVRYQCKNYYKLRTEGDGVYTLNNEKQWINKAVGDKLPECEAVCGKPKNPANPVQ
The assay is described as follows: SPR. Background: SPR reads the build-up and loss of mass on a sensor chip optically.

B1: Hemoglobin (protein)
chain 1: not shown
chain 2: not shown
modifications: dextran (10 kDa)-linker at beta Cys93
B1: the Kd came to 0.823 nM.

As a reminder, the Kd is a measure of binding affinity in units of concentration. A higher Kd goes with a looser complex.
